Reference: patent US7846710B2, “Cell comprising an intein for the production of a cyclic peptide” (The Penn State Research Foundation, priority 1998, dated 2010)

Biological target: T1, recombinant Streptomyces antibioticus tyrosinase (Streptomyces antibioticus, UniProt P07524)
T1 construct: expressed in transfected cells; host or cells: E. coli XL1-Blue co-transformed with pDIM-NY (pDIMN-Y) and pARCP-p or pARCP2-6H
T1 sequence (P07524 whole entry, looked up): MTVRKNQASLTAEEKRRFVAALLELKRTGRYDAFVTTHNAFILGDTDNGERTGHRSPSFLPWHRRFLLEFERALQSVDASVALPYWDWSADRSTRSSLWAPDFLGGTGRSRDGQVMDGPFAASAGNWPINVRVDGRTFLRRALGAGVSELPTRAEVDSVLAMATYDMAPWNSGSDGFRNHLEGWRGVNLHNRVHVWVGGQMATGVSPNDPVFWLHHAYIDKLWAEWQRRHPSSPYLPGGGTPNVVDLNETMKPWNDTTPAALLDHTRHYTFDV
Assay: In vivo assay on FeCuY plates to detect tyrosinase inhibition (pigment formation) by co-expressed cyclic peptide
Type: cell-based, Escherichia coli XL1-Blue
Conditions: co-expression in tyrosinase expressing XL1-Blue cells on FeCuY plates, L-(+)arabinose (0.5%) induction
Description: FIG. 7 is a photograph of FeCuY plates used in an in vivo assay to detect tyrosinase inhibition by pseudostellarin F.
The tyrosinase gene (including ORF 438) from Streptomyces antibioticus (Berman et al, Gene 37:101, 1985) was amplified with Vent-polymerase from pIJ702 (ATCC no. 35287) with primers introducing 5′
Ndel and 3′ EcoRI restriction sites. The PCR product was digested with Ndel and EcoRI and ligated into similarly digested pDIMN2 (Ostermeier et al, supra) to generate pDIMN-Y. Transformed ligation mixtures were grown at ambient temperature for 5 days, and colonies that expressed tyrosinase were identified by pigment formation on FeCuY plates [LB agar plates containing ampicillin (200 ug/ml), FeCI3.6H2O (0.2 mM), CuS04.5H2O (0.2 mM), L-tyrosine (0.3 mg/ml, Y) and isopropyl-B-D-galactoside (1 mM)] (Della-Cioppa, G. et al., Biotechnology 8:634, 1990).
Pseudostellarin F production was readily detected in vivo through inhibition of recombinant Streptomyces antibioticus tyrosinase (FIG. 7). In the experiment shown in FIG. 7, XLI-Blue cells were co-transformed with pDIM-NY and either pARCP2-6H (a & b) or pARCP-p (c & d). The cells were plated on FeCuY plates with chloramphenicol (50 ug/ml), either without (a & c) or with (b & d) L-(+)arabinose (0.5%).

cyclo-[Ser-Gly-Gly-Tyr-Leu-Pro-Pro-Leu] (SGGYLPPL; backbone cyclized; printed: Ser-Gly-Gly-Tyr-Leu-Pro-Pro-Leu) [pseudostellarin F, backbone cyclic peptide produced in E. coli from pARCP-p by intein-mediated cyclization]
tyrosinase inhibition (pigment formation): dramatically reduced pigment formation

cyclo-[CHMHHHHHHGAGAA] (backbone cyclized) [cyclic peptide from pARCP2-6H, unrelated cyclic peptide encoded by plasmid pARCP2-6H, used as negative control]
tyrosinase inhibition (pigment formation): failed to inhibit tyrosinase
